# Laboratory results published in publication PMC7005798 (2020).
# B1: Recombinant Factor H-Related Protein 4 (FHR-4), FHR-4B variant (natural protein)
# chain: EVKPCDFPEIQHGGLYYKSLRRLYFPAAAGQSYSYYCDQNFVTPSGSYWDYIHCTQDGWSPTVPCLRTCSKSDIEIENGFISESSSIYILNKEIQYKCKPGYATADGNSSGSITCLQNGWSAQPICIKFCDMPVFENSRAKSNGMRFKLHDTLDYECYDGYEISYGNTTGSIVCGEDGWSHFPTCYNSSEKCGPPPPISNGDTTSFLLKVYVPQSRVEYQCQSYYELQGSNYVTCSNGEWSEPPRCIHPCIITEENMNKNNIQLKGKSDIKYYAKTGDTIEFMCKLGYNANTSVLSFQAVCREGIVEYPRCE
# Target: C3b (human, UniProt P01024 23-667; P01024 749-1663)
# Assay: SPR
# Sequence of C3b (P01024 23-667, chain 1 of 2): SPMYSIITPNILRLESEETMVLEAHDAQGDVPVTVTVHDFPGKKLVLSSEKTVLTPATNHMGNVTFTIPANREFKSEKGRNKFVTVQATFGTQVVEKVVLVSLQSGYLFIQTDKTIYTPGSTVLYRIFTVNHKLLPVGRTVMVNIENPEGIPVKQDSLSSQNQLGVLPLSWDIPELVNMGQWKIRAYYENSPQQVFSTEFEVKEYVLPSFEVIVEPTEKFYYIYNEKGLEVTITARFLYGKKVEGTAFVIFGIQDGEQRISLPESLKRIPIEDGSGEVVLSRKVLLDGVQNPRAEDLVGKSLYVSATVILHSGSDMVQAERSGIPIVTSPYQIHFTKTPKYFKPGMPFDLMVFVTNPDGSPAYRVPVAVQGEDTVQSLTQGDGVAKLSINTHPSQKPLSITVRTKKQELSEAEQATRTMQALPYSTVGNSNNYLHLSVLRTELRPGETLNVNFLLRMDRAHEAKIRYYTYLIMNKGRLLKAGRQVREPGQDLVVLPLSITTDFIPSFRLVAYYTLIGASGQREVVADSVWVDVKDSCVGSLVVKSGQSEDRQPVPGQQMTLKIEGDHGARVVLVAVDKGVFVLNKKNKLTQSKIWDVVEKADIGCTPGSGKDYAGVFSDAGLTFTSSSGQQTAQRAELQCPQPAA
# Sequence of C3b (P01024 749-1663, chain 2 of 2): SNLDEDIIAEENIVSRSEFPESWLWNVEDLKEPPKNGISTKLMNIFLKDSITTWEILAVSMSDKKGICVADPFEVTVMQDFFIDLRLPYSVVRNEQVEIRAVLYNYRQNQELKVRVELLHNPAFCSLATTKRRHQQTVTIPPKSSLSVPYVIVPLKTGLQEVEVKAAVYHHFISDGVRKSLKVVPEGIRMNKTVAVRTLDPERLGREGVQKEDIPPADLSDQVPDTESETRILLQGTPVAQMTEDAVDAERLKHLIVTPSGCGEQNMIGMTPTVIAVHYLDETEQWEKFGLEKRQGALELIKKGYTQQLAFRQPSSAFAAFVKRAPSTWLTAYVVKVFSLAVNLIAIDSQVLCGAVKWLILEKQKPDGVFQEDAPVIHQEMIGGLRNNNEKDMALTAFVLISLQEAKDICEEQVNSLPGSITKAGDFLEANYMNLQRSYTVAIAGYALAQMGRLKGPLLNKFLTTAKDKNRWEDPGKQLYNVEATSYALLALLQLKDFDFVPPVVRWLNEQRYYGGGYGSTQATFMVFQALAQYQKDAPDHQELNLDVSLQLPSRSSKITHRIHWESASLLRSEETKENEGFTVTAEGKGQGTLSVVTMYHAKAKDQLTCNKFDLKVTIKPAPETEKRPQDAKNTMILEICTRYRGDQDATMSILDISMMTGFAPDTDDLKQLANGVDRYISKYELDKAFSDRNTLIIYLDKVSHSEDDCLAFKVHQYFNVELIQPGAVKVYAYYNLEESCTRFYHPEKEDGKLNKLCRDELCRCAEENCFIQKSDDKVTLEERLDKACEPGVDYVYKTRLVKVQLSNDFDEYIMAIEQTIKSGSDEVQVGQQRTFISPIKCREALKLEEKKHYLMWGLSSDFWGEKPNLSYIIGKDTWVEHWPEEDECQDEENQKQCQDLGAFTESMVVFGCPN
binder,measurement,value
B1,Kd,1100 nM
